This is an account of results in US20210009683A1.

For this test, the target named is T1, CLEC-2 on washed mouse platelet (mouse) (UniProt Q9JL99).
T1 sequence (looked up): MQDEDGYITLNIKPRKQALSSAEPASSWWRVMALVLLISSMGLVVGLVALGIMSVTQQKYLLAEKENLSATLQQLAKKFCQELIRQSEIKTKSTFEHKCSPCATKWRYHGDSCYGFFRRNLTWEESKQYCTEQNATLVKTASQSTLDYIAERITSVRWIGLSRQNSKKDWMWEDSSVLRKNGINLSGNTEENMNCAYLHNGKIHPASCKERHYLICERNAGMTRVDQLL
Nature of the test: cell-based or functional assay.

Where a chain is given by its changes, count along the chain named. In names and notes the source's numbering stands.

B1: wild-type human Aggrus expressed in CHO cells (CHO/Aggrus-WT) (ligand, UniProt Q86YL7 23-162, looked up)
chain: ASTGQPEDDTETTGLEGGVAMPGAEDDVVTPGTSEDRYKSGLTTLVATSVNSVTGIRIEDLPTSESTVHAQEQSPSATASNVATSHSTEKVDGDTQTTVEKDGLSTVTLVGIIVGVLLAIGFIGAIIVVVMRKMSGRYSP
Take B1: the platelet aggregation-starting time (light transmittance, washed mouse platelet mixed with CHO cells) was found to be 6 min.

B2: Aggrus-D48A expressed in CHO cells (CHO/Aggrus-D48A) (ligand, human, UniProt Q86YL7 23-162, looked up)
chain: B1 chain with D26A
B2: the delay of the start of platelet aggregation against CHO/Aggrus-WT was found to be 8 min and the platelet aggregation-starting time (light transmittance, washed mouse platelet mixed with CHO cells) was 14 min.
